Entries after “also recorded” stand apart in the source; their conditions may differ. Where no end group is shown, it is not given here.

The text below walks through data of patent US8889620B2, “Pharmaceutical compositions comprising peptide antagonists of vascular endothelial growth factor” (Children's Medical Center Corporation, priority 1997, dated 2014).

The test system of assay [1] is KDR/Flk-1. As to the kind of experiment: Cross-linking of 125I-VEGF121 to KDR/Flk-1 of HUVEC. The assay is classed as binding, human. Particulars: 15 ug/ml fusion protein, FIG. 8 lane 2. The procedure: FIG. 8. GST-Ex 7+8 fusion protein inhibits cross-linking of ^125I-VEGF121 to KDR/Flk-1 of HUVEC ^125I-VEGF121 (2˜0 ng/ml) was bound to subconfluent cultures of HUVEC in 6-cm dishes. The binding was carried out in the presence (lane 2) or the absence (lane 1) of 15 ug/ml GST-Ex 7+8. Heparin (1 ug/ml) was added to each dish. At the end of a 2-h incubation, ^125I-VEGF was chemically cross-linked to the cell surface. The cells were lysed, and proteins were resolved by 6% SDS-PAGE. The gel was dried and exposed to x-ray film.
(§1) Binding and cross-linking experiments using 125I-VEGF165 and 125I-VEGF121 were performed at described previously (Gitay-Goren, et al., J. Biol. Chem., 287, 6003-6096 (1992), Soker, et al., J: Biol. Chem., 271,5761-5767 (1996)). VEGF binding was quantified by measuring the cell-associated radioactivity in a y-counter (Beckman, Gamma 5500). The counts represent the average of three walls. All experiments were repeated at least three times, and similar results were obtained. 125I-VEGF cross-linked complexes were resolved by 6% SDS-PAGE, and the gels were exposed to a phosphor screen and scanned after 24 h by a PhosphorImager (Molecular Dynamics). Subsequently, the gels were exposed to x-ray film.

Assay [2] deals with KDR/Flk-1. Put plainly: Cross-linking of 125I-VEGF165 to KDR/Flk-1 on HUVEC. The note with it: 15 ug/ml fusion protein, FIG. 4. The format is binding, human. The procedure: (§2) FIG. 4. GST-EX 7+8 fusion protein inhibits cross-linking of ^125I-VEGF165 to ^125I-VEGF165R and to KDR/Flk-1. ^125I-VEGF165 (5 ng/ml) was bound to subconfluent cultures of HUVEC (lanes 1 and 2) and MDA-MB-23 1 cells (lanes 3 and 4) in 6-cm dishes. The binding was carried out in the presence (lanes 2 and 4) or the absence (lanes 1 and 3) of 15 ug/ml GST-Ex 7+8. Heparin (1 ug/ml) was added to each dish. At the end of a 2-h incubation, ^125I-VEGF165 was chemically cross-linked to the cell surface. The cells were lysed, and proteins were resolved by 6% SDS-PAGE. The gel was dried and exposed to x-ray film.
as §1

Assay [3] addresses T1, KDR/Flk-1 (Homo sapiens, UniProt P35968). As to the kind of experiment: Cross-linking of 125I-VEGF165 to KDR/Flk-1 on PAE-KDR cells. The note with it: data not shown. The arrangement: expressed in transfected cells; host or cells: porcine endothelial cells (PAE), gift of Dr. Claesson-Welsh. The format is binding, porcine endothelial cells transfected to express KDR/Flk-1. The procedure:
as §1

The target of assay [4] is T2, VEGF165R (Homo sapiens, UniProt O14786). Put plainly: Direct binding/cross-linking of 125I-GST-Ex 7 to HUVEC: VEGF165R. Further details: HUVEC, which express both KDR/Flk-1 and VEGF165R; endogenous in cells; host or cells: HUVEC (ATCC). The note with it: cross-linking, 1 ug/ml heparin, FIG. 1 lane 3. On the procedure:
(§3) FIG. 1. Cross-linking of 1 ^125I-VEGF165, ^125I-VEGF121 and ^125I-GST-EX 7 to HUVEC. ^125I-VEGF165 (5 ng/ml) (lane 1) or ^125I-VEGF121 (10 ng/ml) (lane 2) or ^125I-GST-EX 7 (50 nglml) (lane 3) were bound to subconfluent cultures of HUVEC in 6-cm dishes. The binding was carried out in the presence of 1 ug/ml heparin. At the end of a 2-H incubation, each ^125I-VEGF isoform was chemically cross-linked to the cell surface. The cells were lysed and proteins were resolved by 6% SDS-PAGE. The polyacrylamide gel was dried and exposed to x-ray film.
as §1

In assay [5] the target is T3, KDR/Flk-1 on PAE-KDR cells (Homo sapiens, UniProt P35968).
T3 construct: expressed in transfected cells; host or cells: porcine endothelial cells (PAE), gift of Dr. Claesson-Welsh
T3 sequence (P35968 20-1356): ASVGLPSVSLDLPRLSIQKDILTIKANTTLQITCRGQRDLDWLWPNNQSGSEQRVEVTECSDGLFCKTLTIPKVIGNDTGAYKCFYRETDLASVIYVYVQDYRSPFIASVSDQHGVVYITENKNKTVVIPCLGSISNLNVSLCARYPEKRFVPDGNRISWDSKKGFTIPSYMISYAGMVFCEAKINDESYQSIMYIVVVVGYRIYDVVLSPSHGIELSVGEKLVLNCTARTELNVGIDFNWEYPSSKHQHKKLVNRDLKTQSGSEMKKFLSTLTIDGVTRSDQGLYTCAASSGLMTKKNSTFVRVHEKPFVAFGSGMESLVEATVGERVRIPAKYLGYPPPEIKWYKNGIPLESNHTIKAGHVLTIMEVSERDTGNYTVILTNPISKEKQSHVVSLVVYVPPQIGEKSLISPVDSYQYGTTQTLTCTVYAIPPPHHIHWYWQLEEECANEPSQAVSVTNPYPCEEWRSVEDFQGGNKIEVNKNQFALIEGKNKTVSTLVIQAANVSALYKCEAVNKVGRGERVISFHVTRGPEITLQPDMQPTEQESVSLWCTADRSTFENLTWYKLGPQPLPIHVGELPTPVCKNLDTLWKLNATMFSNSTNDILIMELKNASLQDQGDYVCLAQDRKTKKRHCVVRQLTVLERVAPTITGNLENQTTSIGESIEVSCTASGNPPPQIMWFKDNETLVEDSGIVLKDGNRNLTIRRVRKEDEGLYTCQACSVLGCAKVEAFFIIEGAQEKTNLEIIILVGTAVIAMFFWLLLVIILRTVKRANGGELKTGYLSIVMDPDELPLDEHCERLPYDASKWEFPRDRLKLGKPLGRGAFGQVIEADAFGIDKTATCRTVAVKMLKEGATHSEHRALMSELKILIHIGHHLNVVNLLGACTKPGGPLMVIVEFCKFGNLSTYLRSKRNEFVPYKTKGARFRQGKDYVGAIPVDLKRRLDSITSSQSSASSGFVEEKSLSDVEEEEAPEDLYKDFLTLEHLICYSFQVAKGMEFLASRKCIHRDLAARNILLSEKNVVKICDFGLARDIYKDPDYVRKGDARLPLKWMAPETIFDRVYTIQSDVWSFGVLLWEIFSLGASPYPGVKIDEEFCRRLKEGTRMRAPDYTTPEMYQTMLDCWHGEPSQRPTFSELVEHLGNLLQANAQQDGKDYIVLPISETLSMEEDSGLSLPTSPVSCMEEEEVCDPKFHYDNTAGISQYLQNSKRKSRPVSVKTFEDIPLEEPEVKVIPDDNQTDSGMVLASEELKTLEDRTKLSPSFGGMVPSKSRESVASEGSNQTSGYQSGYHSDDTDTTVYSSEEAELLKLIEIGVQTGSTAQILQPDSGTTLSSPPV
As to the kind of experiment: Inhibition of 125I-VEGF165 binding to PAE-KDR cells. The arrangement: species or system porcine endothelial cells transfected to express KDR/Flk-1. The note with it: 125I-VEGF165 5 ng/ml, FIG. 3C. The procedure:
FIGS. 3A-3C. Inhibition of ^125I-VEGF165 binding to HUVEC, MDA MB 231 cells, and PAE-KDR cells by GST-EX 7+8. ^125I-VEGF165 (5 ng,/ml) was bound to subconfluent cultures of HUVEC (3A), MDA MB 23 1 cells (3B), and PAE-KDR cells (3C) in 48-well dishes in the presence of increasing amounts of GST-Ex 7+8 (closed 20 square) or control GST protein (open squares). At the end of a 2-h incubation, the cells were washed and lysed, and the cell-associated radioactivity was determined with a γ-counter. The counts obtained are expressed as the percentage of the counts obtained in the presence of PBS without addition of GST or fusion protein.
Human umbilical vein endothelial cells (HUVEC) were obtained from the American Type Culture Collection (ATCC) (Rockville, Md.) and grown on gelatin-coated dishes in M-199 medium containing 20% fetal calf serum (FCS) and a mixture of glutamine, penicillin, and streptomycin (GPS). Basic FGF (1 nglml) was added to the culture medium every other day. Porcine endothelial cells (PAE), parental and transfected to express KDRElk-1 (PAE-KDR), were kindly provided by Dr. Lema Claesson-Welsh and grown in F12 medium containing 10% FCS and GPS as described (Waltenberger, et al., J. Biol. Chem., 269,26988-26995 (1994)). MDAMB-231 (231) cells were obtained from ATCC and grown in Bulbecoo's modified Eagle's medium containing 10% FCS and GPS.
as §1

Assay [6] has as its target T2, VEGF165R. As to the kind of experiment: Cross-linking of 125I-VEGF165 to VEGF165R on HUVEC. The format is binding. The arrangement: HUVEC, which express both KDR/Flk-1 and VEGF165R; endogenous in cells; host or cells: HUVEC (ATCC). Particulars: 15 ug/ml fusion protein, FIG. 4 lane 2. The procedure: as §2, §1
Assay [7] deals with T1, KDR/Flk-1. As to the kind of experiment: Direct binding/cross-linking of 125I-GST-Ex 7 to HUVEC: KDR/Flk-1. The arrangement: HUVEC, which express both KDR/Flk-1 and VEGF165R; endogenous in cells; host or cells: HUVEC (ATCC). Particulars: cross-linking, 1 ug/ml heparin, FIG. 1 lane 3. On the procedure:
as §3, §1

T1 sequence (P35968 20-1356): as above
T2 sequence (O14786 22-923): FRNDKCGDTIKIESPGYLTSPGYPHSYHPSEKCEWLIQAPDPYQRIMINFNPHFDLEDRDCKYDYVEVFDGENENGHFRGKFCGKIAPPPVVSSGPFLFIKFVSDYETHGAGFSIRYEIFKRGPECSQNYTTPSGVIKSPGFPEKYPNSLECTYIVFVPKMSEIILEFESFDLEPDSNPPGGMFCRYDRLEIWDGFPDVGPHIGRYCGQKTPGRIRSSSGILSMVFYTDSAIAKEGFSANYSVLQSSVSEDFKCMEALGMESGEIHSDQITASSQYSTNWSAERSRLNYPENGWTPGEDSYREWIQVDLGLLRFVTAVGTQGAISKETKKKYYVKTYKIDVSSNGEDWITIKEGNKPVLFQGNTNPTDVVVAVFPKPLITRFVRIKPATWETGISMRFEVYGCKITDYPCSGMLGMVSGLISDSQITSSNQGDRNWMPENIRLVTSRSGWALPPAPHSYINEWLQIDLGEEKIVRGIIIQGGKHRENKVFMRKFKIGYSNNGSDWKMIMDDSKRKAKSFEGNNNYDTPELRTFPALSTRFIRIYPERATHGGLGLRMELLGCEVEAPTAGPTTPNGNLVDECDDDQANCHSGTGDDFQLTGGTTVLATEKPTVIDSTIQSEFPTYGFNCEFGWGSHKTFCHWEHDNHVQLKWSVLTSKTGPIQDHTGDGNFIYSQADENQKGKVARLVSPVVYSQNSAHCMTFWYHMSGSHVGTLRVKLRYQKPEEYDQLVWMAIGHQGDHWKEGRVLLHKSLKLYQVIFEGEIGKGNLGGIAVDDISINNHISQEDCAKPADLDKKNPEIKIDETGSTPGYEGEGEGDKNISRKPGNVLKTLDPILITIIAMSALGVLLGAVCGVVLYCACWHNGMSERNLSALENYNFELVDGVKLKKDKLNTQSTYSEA

Turning to “GST-Ex 7+8: GST fusion protein containing the peptide encoded by VEGF165 exons 7 and 8 (PCGPCSERRKHLFVQDPQTCKCSCKNTDSRCKARQLELNERTCRCDKPRR; cysteine pairing not given here; also: GST fusion protein, side of fusion not given here)”, the “formation of 240-kDa 125I-VEGF121/KDR/Flk-1 cross-linked complexes on HUVEC (in words)” value in the assay with KDR/Flk-1 [1] was “significantly inhibited; also recorded: diminished binding”. Besides, the “binding/cross-linking of 125I-VEGF165 to KDR/Flk-1 on HUVEC (in words)” value in the assay with KDR/Flk-1 [2] is on record as “inhibits indirectly; also recorded: inhibited”. Besides, in the assay with KDR/Flk-1 [3], the “cross-linking of 125I-VEGF165 to KDR/Flk-1 on PAE-KDR cells (in words)” value is “did not inhibit”. In the assay with VEGF165R [4], the “direct binding to VEGF165R on HUVEC (in words)” value is on record as “binds”. In addition, in assay [5], the “inhibition of 125I-VEGF165 binding to PAE-KDR cells (in words)” value is on record as “did not inhibit”. The “formation of 165-175-kDa 125I-VEGF165/VEGF165R cross-linked complexes on HUVEC (in words)” value with VEGF165R [6] is “markedly inhibited”. In addition, the “direct binding to KDR/Flk-1 on HUVEC (in words)” value with KDR/Flk-1 [7] is “not and does not bind directly”.
